Assay results taken from PMC10120378.
Like-named read-outs stand apart in the source and are kept apart here.

Experiments:
Experiment in all cases: fluorescence polarization
HUα2 P63A [1] = biological target: T1, HUα2 P63A (Escherichia coli (MG1655-derived …, UniProt P0ACF0 1-90, P63A))
HUα2 wild-type [2] = biological target: T2, HUα2 wild-type (Escherichia coli (MG1655-derived …, UniProt P0ACF0 1-90))
HUα2 wild-type [3] = biological target: T2, HUα2 wild-type; remark: listed apart in the source
HUα2 P63A [4] = biological target: T1, HUα2 P63A; remark: listed apart in the source

B1: linear DNA of random sequence (40 bp) (dsDNA)
DNA 1: CCGACTAAGTACATGTGAGAATTTTGCTGCCTTCGAACCT
DNA 2: AGGTTCGAAGGCAGCAAAATTCTCACATGTACTTAGTCGG
With B1 the binding result (HUα2 P63A [1]) was “binds” and the Kd (HUα2 wild-type [2]) was 51 ± 4 nM.

B2: cruciform DNA (structured_DNA)
DNA 1: CCTAGCAAGGGGCTGCTACCTTTGGTAGCAGCCTGAGCGGTGG
DNA 2: CCACCGCTCAACTCAACTGCTTTGCAGTTGAGTCCTTGCTAGG
B2 showed a Kd (HUα2 wild-type [3]) of 178 ± 22 nM and a Kd (HUα2 P63A [4]) of 352 nM.
